Positions count from the first letter of the chain named. Names may count otherwise.
B1: E35D/M47L/V68M (protein)
chain: VIHVTKEVKEVATLSCGHNVSVEELAQTRIYWQKDKKMVLTMMSGDLNIWPEYKNRTIFDITNNLSIMILALRPSDEGTYECVVLKYEKDAFKREHLAEVTLSVKAD
B2: E35D/N48K (protein)
chain: B1 chain with L47M, N48K, M68V
B3: M47V/V68M (protein)
chain: B1 chain with D35E, L47V
B4: D46V/M47L/L85Q (protein)
chain: B1 chain with D35E, D46V, M68V, L85Q
B5: E35D/D46V/M47L/L85Q (protein)
chain: B1 chain with D46V, M68V, L85Q
B6: E35D/N48K/K89N (protein)
chain: B1 chain with L47M, N48K, M68V, K89N
B7: M47V/N48K/K89N (protein)
chain: B1 chain with D35E, L47V, N48K, M68V, K89N
B8: E35D/D46V/M47V/N48K/V68M (protein)
chain: B1 chain with D46V, L47V, N48K
B9: E35D/D46V/M47L/V68M/L85Q (protein)
chain: B1 chain with D46V, L85Q
B10: K89N (protein)
chain: B1 chain with D35E, L47M, M68V, K89N
B11: M47V/N48K/V68M (protein)
chain: B1 chain with D35E, L47V, N48K
B12: E35D/V68M/L85Q (protein)
chain: B1 chain with L47M, L85Q
B13: E35D/K89N (protein)
chain: B1 chain with L47M, M68V, K89N
B14: E35D/M47V/N48K/K89N (protein)
chain: B1 chain with L47V, N48K, M68V, K89N
B15: M47V (protein)
chain: B1 chain with D35E, L47V, M68V
B16: D46V/M47L/V68M (protein)
chain: B1 chain with D35E, D46V

target: T1, CD28 (Homo sapiens, UniProt P10747); assay: Flow binding to Jurkat/IL2 reporter cells (CD28); design: host or cells: Jurkat cells expressing an IL-2-luciferase reporter; settings: Table E19; Jurkats (CD28); 33.3 nM
Method in brief: (§1)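 Fusion proteins bound to CHO cells stably expressing CTLA4 or PD-L1, or to Jurkat/IL2 reporter cells with endogenous CD28, for 45 min on ice after blocking in PBS/1% BSA. Detection with PE anti-human Fc by flow cytometry; PE MFI per cell type and binding EC50 determined.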

| CD28 MFI at 33.3 nM | Molecule |
| --- | --- |
| 1243 | B1 |
| 194 | B2 |
| 328 | B3 |
| 567 | B4 |
| 268 | B5 |
| 411 | B6 |
| 366 | B7 |
| 1085 | B8 |
| 464 | B9 |
| 56.3 | B10 |
| 641 | B11 |
| 76.2 | B12 |
| 236 | B13 |
| 701 | B14 |
| 68.7 | B15 |
| 2183 | B16 |

same assay, conditions: Table E19; MFI at 33.3 nM relative to WT CD80 ECD-Fc (Abcam)

| CD28 Fold change to WT CD80 [fold] | Molecule |
| --- | --- |
| 1.8 | B1 |
| 0.3 | B2 |
| 0.5 | B3 |
| 0.8 | B4 |
| 0.4 | B5 |
| 0.6 | B6 |
| 0.5 | B7 |
| 1.5 | B8 |
| 0.7 | B9 |
| 0.1 | B10 |
| 0.9 | B11 |
| 0.1 | B12 |
| 0.3 | B13 |
| 1.0 | B14 |
| 0.1 | B15 |
| 3.1 | B16 |

target: T1, CD28; assay: Jurkat/IL2 + CHO/OKT3 +/- PD-L1 reporter assay: PD-L1-dependent CD28 costimulation; assay type: cell-based; design: host or cells: Jurkat cells expressing an IL-2-luciferase reporter; settings: Table E21; Jurkat/IL2 + CHO/OKT3/PD-L1; 5.0 nM
Method in brief: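 Jurkat reporter cells (100,000/well) preincubated 15 min at room temperature with test protein, then cocultured 5 h at 37 °C with CHO aAPCs bearing anti-CD3 scFv (OKT3) with or without PD-L1. Luciferase luminescence (RLU) read after lysis-substrate addition.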

| Fold Increase over WT CD80-IgV-Fe [fold] | Molecule |
| --- | --- |
| 6.5 | B1 |
| 5.1 | B2 |
| 4.8 | B3 |
| 5.2 | B4 |
| 4.2 | B5 |
| 6.3 | B6 |
| 4.1 | B7 |
| 6.1 | B8 |
| 6.2 | B9 |
| 1.0 | B10 |
| 5.8 | B11 |
| 4.4 | B12 |
| 2.5 | B13 |
| 7.1 | B14 |
| 3.9 | B15 |
| 6.3 | B16 |

same assay, conditions: Table E21; Jurkat/IL2 + CHO/OKT3/PD-L1; CD80 Conc 5.0 nM

| Relative Luciferase Units (RLU), CD80 Conc 5.0 nM [RLU] | Molecule |
| --- | --- |
| 749 | B1 |
| 590 | B2 |
| 553 | B3 |
| 598 | B4 |
| 481 | B5 |
| 719 | B6 |
| 472 | B7 |
| 696 | B8 |
| 712 | B9 |
| 116 | B10 |
| 664 | B11 |
| 511 | B12 |
| 293 | B13 |
| 814 | B14 |
| 445 | B15 |
| 724 | B16 |

target: huCTLA4 (Homo sapiens, UniProt P16410); assay: Flow binding to CHO cells stably expressing CTLA4; design: huCTLA4 and huPD-L1, full-length mammalian surface expression constructs were generated; expressed in transfected cells; host or cells: CHO cells, lentiviral transduction, sorted to >98% purity; settings: Table E19; CHO cells stably expressing CTLA4; 33.3 nM
Method in brief: as §1

Sequence of huCTLA4 (P16410 36-223): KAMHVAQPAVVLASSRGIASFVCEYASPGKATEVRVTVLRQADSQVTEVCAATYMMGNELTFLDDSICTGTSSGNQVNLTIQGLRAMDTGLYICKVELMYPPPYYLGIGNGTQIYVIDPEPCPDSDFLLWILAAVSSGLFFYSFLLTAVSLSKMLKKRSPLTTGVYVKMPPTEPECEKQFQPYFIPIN

| CTLA4 MFI at 33.3 nM | Molecule |
| --- | --- |
| 28603 | B1 |
| 41325 | B2 |
| 7282 | B3 |
| 40153 | B4 |
| 38150 | B5 |
| 34727 | B6 |
| 42071 | B7 |
| 23880 | B8 |
| 26207 | B9 |
| 944 | B10 |
| 34612 | B11 |
| 42761 | B12 |
| 21755 | B13 |
| 43756 | B14 |
| 33341 | B15 |
| 34688 | B16 |

same assay, conditions: Table E19; MFI at 33.3 nM relative to WT CD80 ECD-Fc (Abcam)

| CTLA4 Fold change to WT CD80 [fold] | Molecule |
| --- | --- |
| 0.7 | B1 |
| 1.0 | B2 |
| 0.2 | B3 |
| 1.0 | B4 |
| 0.9 | B5 |
| 0.9 | B6 |
| 1.0 | B7 |
| 0.6 | B8 |
| 0.6 | B9 |
| 0.0 | B10 |
| 0.9 | B11 |
| 1.1 | B12 |
| 0.5 | B13 |
| 1.1 | B14 |
| 0.8 | B15 |
| 0.9 | B16 |

target: huPD-L1 (Homo sapiens, UniProt Q9NZQ7); assay: Flow binding to CHO cells stably expressing PD-L1; design: huCTLA4 and huPD-L1, full-length mammalian surface expression constructs were generated; expressed in transfected cells; host or cells: CHO cells, lentiviral transduction, sorted to >98% purity; settings: Table E19; CHO cells stably expressing PD-L1; 33.3 nM
Method in brief: as §1

Sequence of huPD-L1 (Q9NZQ7 19-290): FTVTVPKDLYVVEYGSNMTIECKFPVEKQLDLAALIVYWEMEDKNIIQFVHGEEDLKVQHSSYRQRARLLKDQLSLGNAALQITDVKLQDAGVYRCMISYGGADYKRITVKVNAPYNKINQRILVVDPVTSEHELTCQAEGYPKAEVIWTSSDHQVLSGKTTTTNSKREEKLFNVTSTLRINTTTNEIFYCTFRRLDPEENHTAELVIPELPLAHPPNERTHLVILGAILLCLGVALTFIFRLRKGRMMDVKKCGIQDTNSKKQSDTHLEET

| PD-L1 MFI at 33.3 nM | Molecule |
| --- | --- |
| 27896 | B1 |
| 6545 | B2 |
| 4294 | B3 |
| 5976 | B4 |
| 7523 | B5 |
| 5766 | B6 |
| 2366 | B7 |
| 25940 | B8 |
| 28418 | B9 |
| 52.8 | B10 |
| 14464 | B11 |
| 5971 | B12 |
| 757 | B13 |
| 6669 | B14 |
| 2317 | B15 |
| 28020 | B16 |

same assay, conditions: Table E19; MFI at 33.3 nM relative to WT CD80 ECD-Fc (Abcam)

| PD-L1 Fold change to WT CD80 [fold] | Molecule |
| --- | --- |
| 217.9 | B1 |
| 51.1 | B2 |
| 33.5 | B3 |
| 46.7 | B4 |
| 58.8 | B5 |
| 45.0 | B6 |
| 18.5 | B7 |
| 202.7 | B8 |
| 222.0 | B9 |
| 0.4 | B10 |
| 113.0 | B11 |
| 46.6 | B12 |
| 5.9 | B13 |
| 52.1 | B14 |
| 18.1 | B15 |
| 218.9 | B16 |

same assay, conditions: Table E19; ratio of MFI at 33.3 nM

| Ratio of PDL1:CD28 | Molecule |
| --- | --- |
| 22.4 | B1 |
| 33.7 | B2 |
| 13.1 | B3 |
| 10.5 | B4 |
| 28.1 | B5 |
| 14.0 | B6 |
| 6.5 | B7 |
| 23.9 | B8 |
| 61.2 | B9 |
| 0.9 | B10 |
| 22.6 | B11 |
| 78.4 | B12 |
| 3.2 | B13 |
| 9.5 | B14 |
| 33.7 | B15 |
| 12.8 | B16 |

Source: patent publication US20220177587A1, “METHODS AND USES OF VARIANT CD80 FUSION PROTEINS AND RELATED CONSTRUCTS” (Alpine Immune Sciences, Inc., priority 2018, published 2022)
